Experimental data published in patent US20050070690A1.

Experiments:
[1] = target: nerve growth factor; assay: SPR (BiaCore), TrkIg2 amine-coupled to CM5 chip, NGF passed over at 0.1-100 nM, 1:1 Langmuir model
[2] = target: neurotrophin-4; assay: SPR (BiaCore), TrkIg2 amine-coupled to CM5 chip, NT-4 passed over at 1-100 nM, 1:1 Langmuir model
[3] = target: brain derived neurotrophic factor; assay: SPR (BiaCore), TrkIg2 amine-coupled to CM5 chip, BDNF passed over at 0.1-25 nM, 1:1 Langmuir model

Kd [1] | Kd [2] | Kd [3] | Substance
0.0792 nM | – | – | TrkAIg2.66His (from UniProt P04629) (receptor)
0.0926 nM | – | – | TrkAIg26His (from UniProt P04629-2) (receptor)
– | 0.26 nM | 0.79 nM | TrkBIg26His (from UniProt Q16620) (receptor)
